{"source": "patent US20230190883A1", "about": "“STABLE PEPTIDES HAVING RENALASE AGONIST ACTIVITY” (Bessor Pharma, LLC, priority 2020, published 2023)", "test_system": "carrageenan-induced Paw edema", "experiment": "carrageenan-induced paw edema (CPE) model in mice", "type": "in vivo, CD-1 mice", "conditions": "3 mpk", "text": "This test is a rapid in vivo model for evaluation of anti-inflammatory efficacy of test articles. The CPE model in mice quantitativdy assesses inhibition of edema enduced by subplantarinjection of carrageenan. […] Carrageenan-induced inflammation invoves extravasation of polymorphonuclear leukocytes from circulation to the site of inflammation. The subsequent release of myeloperoxidase and other cytokines within the interstitial tissues results in plasma exudation into the site of inflammation. The increased paw volume is measured by water displacement. Anti-inflammatory drugs reduce the paw edema.\n• 1. Receive (SOP 1910, SOP 1920) and quarantine (SOP 560) 125 CD-1 mice (Charles River Laboratories, male, 5-6 weeks old). • 2. Animals are ear tagged (SOP 810), weighed, and sorted into 9 groups with 10 animals/group and 5 groups of 7 animals/group based upon average body weight. • 3. Prepare 3% carrageenan solution: • 1) Preparation at least 2 weeks in advance of use. • 2) Weigh out 600 mg A-carrageenan into a glass beaker. • 3) Add 20 ml deionized water. • 4) Stir on mild heat until carrageenan fully dissolved. • 5) Cool solution to ambient temperature. • 6) Store at 4-8° C. • 4. Until the day of use the renalase peptides are stored at -20° C. as dry powder. • 5. DAY 0 • a. Prepare test material in sterile saline (vehicle). • b. On the day of dosing, renalase peptides are dissolved. • c. On day prior to administration check carrageenan solution for clarity (no visible evidence of contamination). • 1) Equilibrate carrageenan to ambient temperature. • d. Record mouse weights in laboratory notebook. • e. Measure and record paw initial paw volumes: • 1) Place beaker of water on balance and tare to zero. • 2) Place right hind limb in the beaker of water on the scale with the top of the hock centered in the meniscus of the water. Record read-out on the scale. • 3) The foot must be dried after each measurement as wet feet will change the readout. • 4) Re-tare the scale between measurements to account for decrease in water volume. • f. […]\nThe test was also conducted to compare the inhibition of inflammation by peptide 10 as compared to the corresponding peptide fragment without the alanine substitution at position 220 (peptide 81).", "note": "Marks after values point to notes of the source that are not given here.", "data": [{"molecule": "Renalase: RNLS is a 37 kD secretory protein that is primarily made by kidney proximal renal tubules cells (protein, UniProt Q5VYX0 18-342, looked up) Renalase: ALLRRQTSGPLYLAVWDKAEDSGGRMTTACSPHNPQCTADLGAQYITCTPHYAKKHQRFYDELLAYGVLRPLSSPIEGMVMKEGDCNFVAPQGISSIIKHYLKESGAEVYFRHRVTQINLRDDKWEVSKQTGSPEQFDLIVLTMPVPEILQLQGDITTLISECQRQQLEAVSYSSRYALGLFYEAGTKIDVPWAGQYITSNPCIRFVSIDNKKRNIESSEIGPSLVIHTTVPFGVTYLEHSIEDVQELVFQQLENILPGLPQPIATKCQKWRHSQVTNAAANCPGQMTLHHKPFLACGGDGFTQSNFDGCITSALCVLEALKNYI", "values": [{"measurement": "percent change from control, paw edema, 2 hr after carrageenan", "setting": "2 hr after carrageenan", "value": "60.1* percent"}, {"measurement": "percent change from control, paw edema, 4 hr after carrageenan", "setting": "4 hr after carrageenan", "value": "35.3* percent"}, {"measurement": "percent change from control, paw edema, 6 hr after carrageenan", "setting": "6 hr after carrageenan", "value": 4.5, "unit": "%"}, {"measurement": "percent change from control, paw edema, 10 hr after carrageenan", "setting": "10 hr after carrageenan", "value": 23.7, "unit": "%"}]}]}
